From patent US11485776B2, “Antibodies against infectious diseases” (priority 2015, dated 2022) come the findings set out here.

For orientation: Kd means the free concentration of one partner at which half of the binding sites on the other are occupied at equilibrium, for simple one-to-one binding.

Experiment [1] has as its target T1, CaENO1 binding to plasminogen (Candida albicans, UniProt P30575).
T1 construct: using full-length CaENO1 (1323 bp) as template; made in house; host or cells: E. coli BL21
In words: Fibrin matrix-gel degradation with CaENO1 on Ni sepharose. In kind it is biochemical, C. albicans. To be noted: antibody 100 ug; for Binding of CaENO1 to plasminogen: CaENO1 on Ni sepharose. The method, then:
Each experimental group of CaENO1 with CaS1 scFv were dropped onto gel and incubated at room temperature for 2 days to observe gel degrade result. (1) plasminogen (1 ug/ul) only. (2) CaENO1 on Ni Sepharose™ (10 ug). (3) CaENO1 on Sepharose™ (10 ug) with plasminogen (20 ug).
Each experimental group of CaENO1 with CaS1 scFv were dropped onto gel and incubated at room temperature for 2 days to observe gel degrade result an the results are shown in FIG. 15.

The subject of a further experiment is C. albicans. The experiment in a line: C. albicans hyphal formation. It is filed as cell-based. Particulars: CaS1 scFv pre-incubated with 10^3 cfu, 5 days at 37° C. The method, then: (A) C. albicans were cultured in YPD medium overnight at 37° C. 10^8 cfu/ml of C. albicans was mixed with equal volume of 0.5 mg/ml anti-CaENO1 IgY, 0.5 mg/ml CaS1 scFv or 1×PBS, respectively, at room temperature for 1 hr. 1 ul of each mixture in 10× dilutions was spotted on YPD agar plate and incubated at 37° C. overnight. (B) 10^3 cfu of C. albicans was mixed with PBS (control), 10 or 100 µg/ml CaS1 scFv at room temperature for 1 hr. 1 ul of each mixture was spotted on YPD agar plate and incubated at 37° C. for 5 days. The hyphal formation was observed under the microscope.
To determine the effect of scFv antibodies on the cell growth and hyphal formation, anti-CaENO1 IgY (0.5 mg/ml) or CaS1 scFv (0.5 mg/ml) or PBS were pre-incubated with C. albicans (1×10^6 cfu) for 1 hr at 37° C. After incubation, 1 ul of each mixture in 10-fold dilutions was spotted on YPD agar plate and incubated at 37° C. overnight. 10^3 cfu of C. albicans was mixed with 0 (1×PBS control), 10 or 100 µg/ml CaS1 scFv at room temperature for 1 hr. Thereafter, 1 ul of each mixture was spotted on YPD agar plate and incubated at 37° C. for 5 days. […].
So we further investigated whether CaS1 scFv affects the hyphal formation. We pre-incubated CaS1 scFv with C. albicans and the colony morphology was examined. […]

In experiment [2] the target is T2, binding of surface ENO1 of C. albicans to plasminogen (Candida albicans, UniProt P30575).
T2 construct: endogenous in cells; host or cells: C. albicans cells
T2 sequence (P30575 whole entry): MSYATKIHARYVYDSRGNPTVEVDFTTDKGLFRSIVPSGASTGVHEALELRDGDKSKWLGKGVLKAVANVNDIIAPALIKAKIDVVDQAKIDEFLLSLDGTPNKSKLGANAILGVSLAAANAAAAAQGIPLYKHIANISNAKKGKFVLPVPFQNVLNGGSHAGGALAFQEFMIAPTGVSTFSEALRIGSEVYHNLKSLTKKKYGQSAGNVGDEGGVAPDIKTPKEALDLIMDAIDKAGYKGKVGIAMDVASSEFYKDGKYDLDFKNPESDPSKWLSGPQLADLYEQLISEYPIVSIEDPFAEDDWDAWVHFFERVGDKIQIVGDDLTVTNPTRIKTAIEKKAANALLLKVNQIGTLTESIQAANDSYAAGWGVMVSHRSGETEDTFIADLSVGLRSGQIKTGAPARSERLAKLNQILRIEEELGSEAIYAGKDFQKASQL
In words: Fibrin matrix-gel degradation analysis with C. albicans cells. In kind it is cell-based. Particulars: for Binding of CaENO1 to plasminogen: fibrin matrix-gel degradation analysis, C. albicans cells. The method, then:
The ability of CaS1 scFv to block the binding of CaENO1 with plasminogen was evaluated by fibrin matrix-gel degradation analysis. Various samples containing C. albicans only (1), C. albicans+1 ug of plasminogen (2) or C. albicans+10 ug of plasminogen (3) were spotted on the plate. Similar experiments were carried out except C. albicans were mixed first with 10 ug (4) or 100 ug (5) of CaS1 scFv, followed by the addition of 10 ug of plasminogen. C. albicans+CaS1 scFv without plasminogen (6) were spotted as a negative control.
The matrix gel was prepared for fibrinolysis activity detection^33. C. albicans (10^6 cells) were washed and incubated with or without CaS1scFv ([…]) at 37° C. for 1 hr. After incubation, cells were washed and incubated with plasminogen (10 μg) for 30 min. The mixtures were washed with PBS to remove free plasminogen. The resulting cell pellets were placed in a matrix gel that contained 1.25% low-melting-temperature agarose, thrombin (0.05 U/ml, Sigma) and fibrinogen (2 mg/ml, Sigma). The gel was incubated in a humidified chamber at 37° C. for 10-14 hrs until the appearance of clear spots indicated the presence of fibrinolysis activity.
It is well known that surface ENO1 act as a plasminogen receptor 32, binding to plasminogen will activate it to plasmin and leading to the degradation of the fibrinogen (extracellular matrix) containing in the gel. We performed matrix-gel studies to test the possible biological significance of CaENO1-plasminogen association and the effect of CaS1 scFv on this binding was observed.
The inhibition of the degradation of the fibrinogen in the gel is obvious.

The target of a further experiment is T3, CaENO1 (Candida albicans, UniProt P30575).
T3 construct: using full-length CaENO1 (1323 bp) as template; His (N); made in house; host or cells: E. coli BL21
T3 sequence (P30575 whole entry): as above
In kind it is binding, C. albicans. The method, then:
(A) Purified CaS1 scFv was used to recognize recombinant CaENO1 protein. The CaS1 scFv were used as primary antibody with series dilution. The goat anti-chicken light chain IgG was used as secondary antibody. The HRP conjugated donkey anti-goat IgG was used to decet. (B) OD value was calculated into percentage. […] The goat anti-chicken light chain IgG was used as secondary antibody. The HRP conjugated donkey anti-goat IgG was used to detect. (D) We calculated OD value into percentage.
The goat anti-chicken light chain IgG was used as secondary antibody. The HRP conjugated donkey anti-goat IgG was used to decet. (B, D) OD value was calculated into percentage. […] ELISA data were represented as mean±SD of the duplicated well.
After vigorous washings, the bound IgY antibodies were detected by adding HRP-conjugated polyclonal donkey anti-chicken IgY antibodies (1:3,000) (Bethyl Laboratories, Montgomery, Tex., USA) while the bound CaS1 scFv antibodies were detected by goat anti-chicken light chain antibodies (1:3,000) (Bethyl Laboratories, Montgomery, Tex., USA), followed by HRP-conjugated donkey anti-goat IgG antibodies (Jackson ImmunoResearch, USA). After washing as above, a tetramethylbenzidine (TMB) substrate solution (Sigma, USA) was added to the wells for color development. The reaction was stopped with 1 N HCl and optical density was measured at 450 nm using an ELISA plate reader (BioTek Synergy HT). Dissociate constant (KD) was calculated according to the equation, grams/molecular weight (Da)×volume (L)^−1.
The goat anti-chicken light chain IgG was used as secondary antibody. The HRP conjugated donkey anti-goat IgG was used to decet (see FIGS. 14 (A) and (C)). OD value was calculated into percentage. […] ELISA data were represented as mean±SD of the duplicated well (see FIGS. 14 (B) and (D)).

T1 sequence (P30575 whole entry): as above

B1: CaS1 scFv: anti-CaENO1 scFv monoclonal antibody from chicken phage library; light chain SEQ ID NO:11, heavy chain SEQ ID NO:12 (antibody, V domains shown)
VH: TVTLDESGGGLQTPRGALSLVCKASGFTFIDYGMQWVRQAPGKGLEWVAGIGSSGSSTNYGAAVKGRATISRDDGQSTVRLQLNNLRAEDTGTYYCAKSAGGYCVNGAGCNGGSIDAWGHGTEVIVSS
VL: ALTQPSSVSANLGGTVKITCSGGSGSYGWYQQKSPGSAPVTVIYSNNQRPSNIPSRFSGSPSGSTGTLTITGVQADDEAVYFCGSRDSSYVGVFGAGTTLTVL
modifications: scFv linker; amino acid sequence comprised in a heavy chain of an anti-CaENO1 scFv monoclonal antibody (CaS1); amino acid sequence comprised in a light chain of an anti-CaENO1 scFv monoclonal antibody (CaS1)
As to B1, the “Fibrinolytic activity of CaENO1 on Sepharose with plasminogen” value in experiment [1] (CaENO1 10 ug, plasminogen 20 ug, 2 days) was “no fibrinolytic activity”. In addition, the “Binding of CaENO1 to plasminogen” value in experiment [1] is “significantly reduced”; in experiment [1] (listed as CaS1), “inhibits”; in experiment [2], “significantly reduced”; in experiment [2] (listed as CaS1), “significantly inhibited”. Moreover, the Hyphal formation entry in the experiment with C. albicans is given as “very little or none were observed”. Also, in experiment [2] (C. albicans pre-incubated with 10 ug or 100 ug, then 10 ug plasminogen), the “Fibrinolytic activity of C. albicans with plasminogen” value is “significantly inhibited”. The “Fibrinolysis activity in the absence of plasminogen” value in experiment [2] (C. albicans+CaS1 scFv without plasminogen) is on record as “no fibrinolysis activity”. In addition, the “Binding activity to recombinant CaENO1 on ELISA” value in the experiment with CaENO1 was “concentration dependent”. For the same molecule, the “KD by ELISA” value with CaENO1 (recombinant CaENO1 coated, KD or EC50 from OD percentage) turned out to be 0.498 µg/mL. Moreover, in the experiment with CaENO1 (recombinant CaENO1 coated, KD or EC50 from OD percentage, read-out: KD by ELISA), the Kd came out at 18.8 nM.
